{"source": "patent US20250339531A1", "about": "“DUX4 POLYPEPTIDES AND NUCLEIC ACIDS FOR TREATING INFLAMMATORY AND AUTOIMMUNE CONDITIONS” (Fred Hutchinson Cancer Center, priority 2021, published 2025)", "molecules": {"B1": {"name": "MYL12A (protein)", "chain": "MDLTTTMSSKRTKTKTKKRPQRATSNVFAMFDQSQIQEFKEAFNMIDQNRDGFIDKEDLHDMLASLGKNPTDEYLDAMMNEAPGPINFTMFLTMFGEKLNGTDPEDVIRNAFACFDEEATGTIQEDYLRELLTTMGDRFTDEEVDELYREAPIDKKGNFNYIEFTRILKHGAKDKDD"}, "B2": {"name": "EEF1A1 (protein)", "chain": "GKEKTHINIVVIGHVDSGKSTTTGHLIYKCGGIDKRTIEKFEKEAAEMGKGSFKYAWVLDKLKAERERGITIDISLWKFETSKYYVTIIDAPGHRDFIKNMITGTSQADCAVLIVAAGVGEFEAGISKNGQTREHALLAYTLGVKQLIVGVNKMDSTEPPYSQKRYEEIVKEVSTYIKKIGYNPDTVAFVPISGWNGDNMLEPSANMPWFKGWKVTRKDGNASGTTLLEALDCILPPTRPTDKPLRLPLQDVYKIGGIGTVPVGRVETGVLKPGMVVTFAPVNVTTEVKSVEMHHEALSEALPGDNVGFNVKNVSVKDVRRGNVAGDSKNDPPMEAAGFTAQVIILNHPGQISAGYAPVLDCHTAHIACKFAELKEKIDRRSGKKLEDGPKFLKSGDAAIVDMVPGKPMCVESFSDYPPLGRFAVRDMRQTVAVGVIKAVDKKAAGAGKVTKSAQKAQKAK"}, "B3": {"name": "EEF1D (protein)", "chain": "MEAPLGSILSPCPGRAATGRAGTGRVGTGLRPPAVLQLCPLLAFYRCVRKMRSGKASCTLETVWEDKHKYEEAERRFYEHEATQAAASAQQLPAEGPAMNGPGQDDPEDADEAEAPDGGSRRDPRKSQDSRKPLQKKRKRSPKSGLGPADLALLGLSAERVWLDKSLFDQAESSYRQKLADVAAQAAWPPALAPWGLCTHGNQVACHHVTWGIWVNKSSFDQAERAFVEWSQALLLAPDGSRRQGTPNTGQQVAVPDLAHQPSPPVNGQPPLGSLQALVREVWLEKPRYDAAERGFYEALFDGHPPGKVRLQERAGLAEGARRGRRDRRGRNILGNKRAGLRRADGEAPSALPYCYFLQKDAEAPWLSKPAYDSAECRHHAAEALRVAWCLEAASLSHRPGPRSGLSVSSLRPNRKMATNFLAHEKIWFDKFKYDDAERRFYEQMNGPVAGASRQENGASVILRDIARARENIQKSLAGSSGPGASSGTSGDHGELVVRIASLEVENQSLRGVVQELQQAISKLEARLNVLEKSSPGHRATAPQTQHVSPMRQVEPPAKKPATPAEDDEDDDIDLFGSDNEEEDKEAAQLREERLRQYAEKKAKKPALVAKSSILLDVKPWDDETDMAQLEACVRSIQLDGLVWGASKLVPVGYGIRKLQIQCVVEDDKVGTDLLEEEITKFEEHVQSVDIAAFNKI"}, "B4": {"name": "KRT71 (protein)", "chain": "MSRQFTCKSGAAAKGGFSGCSAVLSGGSSSSFRAGSKGLSGGFGSRSLYSLGGVRSLNVASGSGKSGGYGFGRGRASGFAGSMFGSVALGPVCPTVCPPGGIHQVTVNESLLAPLNVELDPEIQKVRAQEREQIKALNNKFASFIDKVRFLEQQNQVLETKWELLQQLDLNNCKNNLEPILEGYISNLRKQLETLSGDRVRLDSELRNVRDVVEDYKKRYEEEINKRTAAENEFVLLKKDVDAAYANKVELQAKVESMDQEIKFFRCLFEAEITQIQSHISDMSVILSMDNNRNLDLDSIIDEVRTQYEEIALKSKAEAEALYQTKFQELQLAAGRHGDDLKNTKNEISELTRLIQRIRSEIENVKKQASNLETAIADAEQRGDNALKDARAKLDELEGALHQAKEELARMLREYQELMSLKLALDMEIATYRKLLESEECRMSGEFPSPVSISIISSTSGGSVYGFRPSMVSGGYVANSSNCISGVCSVRGGEGRSRGSANDYKDTLGKGSSLSAPSKKTSR"}, "B5": {"name": "RRBP1 (protein)", "chain": "MDIYDTQTLGVVVFGGFMVVSAIGIFLVSTFSMKETSYEEALANQRKEMAKTHHQKVEKKKKEKTVEKKGKTKKKEEKPNGKIPDHDPAPNVTVLLREPVRAPAVAVAPTPVQPPIIVAPVATVPAMPQEKLASSPKDKKKKEKKVAKVEPAVSSVVNSIQVLTSKAAILETAPKEVPMVVVPPVGAKGNTPATGTTQGKKAEGTQNQSKKAEGAPNQGRKAEGTPNQGKKTEGTPNQGKKAEGTPNQGKKAEGTPNQGKKAEGAQNQGKKVDTTPNQGKKVEGAPTQGRKAEGAQNQAKKVEGAQNQGKKAEGAQNQGKKGEGAQNQGKKAEGAQNQGKKAEGAQNQGKKAEGAQNQGKKAEGAQNQGKKAEGAQNQGKKAEGAQNQGKKVEGAQNQGKKAEGAQNQGKKAEGAQNQGKKAEGAQNQGKKAEGAQNQGKKAEGAQNQGKKAEGAQNQGKKAEGAQNQGKKVEGAQNQGKKAEGAQNQGKKAEGAQNQGKKAEGAQNQGQKGEGAQNQGKKTEGAQGKKAERSPNQGKKGEGAPIQGKKADSVANQGTKVEGITNQGKKAEGSPSEGKKAEGSPNQGKKADAAANQGKKTESASVQGRNTDVAQSPEAPKQEAPAKKKSGSKKKGEPGPPDADGPLYLPYKTLVSTVGSMVFNEGEAQRLIEILSEKAGIIQDTWHKATQKGDPVAILKRQLEEKEKLLATEQEDAAVAKSKLRELNKEMAAEKAKAAAGEAKVKKQLVAREQEITAVQARMQASYREHVKEVQQLQGKIRTLQEQLENGPNTQLARLQQENSILRDALNQATSQVESKQNAELAKLRQELSKVSKELVEKSEAVRQDEQQRKALEAKAAAFEKQVLQLQASHRESEEALQKRLDEVSRELCHTQSSHASLRADAEKAQEQQQQMAELHSKLQSSEAEVRSKCEELSGLHGQLQEARAENSQLTERIRSIEALLEAGQARDAQDVQASQAEADQQQTRLKELESQVSGLEKEAIELREAVEQQKVKNNDLREKNWKAMEALATAEQACKEKLLSLTQAKEESEKQLCLIEAQTMEALLALLPELSVLAQQNYTEWLQDLKEKGPTLLKHPPAPAEPSSDLASKLREAEETQSTLQAECDQYRSILAETEGMLRDLQKSVEEEEQVWRAKVGAAEEELQKSRVTVKHLEEIVEKLKGELESSDQVREHTSHLEAELEKHMAAASAECQNYAKEVAGLRQLLLESQSQLDAAKSEAQKQSDELALVRQQLSEMKSHVEDGDIAGAPASSPEAPPAEQDPVQLKTQLEWTEAILEDEQTQRQKLTAEFEEAQTSACRLQEELEKLRTAGPLESSETEEASQLKERLEKEKKLTSDLGRAATRLQELLKTTQEQLAREKDTVKKLQEQLEKAEDGSSSKEGTSV"}, "B6": {"name": "HNRNPM (protein)", "chain": "AAGVEAAAEVAATEIKMEEESGAPGVPSGNGAPGPKGEGERPAQNEKRKEKNIKRGGNRFEPYANPTKRYRAFITNIPFDVKWQSLKDLVKEKVGEVTYVELLMDAEGKSRGCAVVEFKMEESMKKAAEVLNKHSLSGRPLKVKEDPDGEHARRAMQKVMATTGGMGMGPGGPGMITIPPSILNNPNIPNEIIHALQAGRLGSTVFVANLDYKVGWKKLKEVFSMAGVVVRADILEDKDGKSRGIGTVTFEQSIEAVQAISMFNGQLLFDRPMHVKMDERALPKGDFFPPERPQQLPHGLGGIGMGLGPGGQPIDANHLNKGIGMGNIGPAGMGMEGIGFGINKMGGMEGPFGGGMENMGRFGSGMNMGRINEILSNALKRGEIIAKQGGGGGGGSVPGIERMGPGIDRLGGAGMERMGAGLGHGMDRVGSEIERMGLVMDRMGSVERMGSGIERMGPLGLDHMASSIERMGQTMERIGSGVERMGAGMGFGLERMAAPIDRVGQTIERMGSGVERMGPAIERMGLSMERMVPAGMGAGLERMGPVMDRMATGLERMGANNLERMGLERMGANSLERMGLERMGANSLERMGPAMGPALGAGIERMGLAMGGGGGASFDRAIEMERGNFGGSFAGSFGGAGGHAPGVARKACQIFVRNLPFDFTWKMLKDKFNECGHVLYADIKMENGKSKGCGVVKFESPEVAERACRMMNGMKLSGREIDVRIDRNA"}}, "test_system": "proteins that co-immunoprecipitated with DUX4-CTD constructs expressed in MB135 myoblasts", "experiment": "LC-MS of proteins co-immunoprecipitated with DUX4-CTD (Table 1) and western validation", "assay_type": "binding, human", "design": "key to 4. mL1dL2 + Dox + IFNG / 4. + IFNG mix / 4. longCTD + Dox + IFNG / 3. + IFNg + Dox longCTD / 3. + Dox longCTD / 3. + IFNG longCTD: peptide-spectrum matches (PSMs) per protein", "details": "kind of count not given; for 4. + IFNG mix: LC-MS value per protein co-immunoprecipitated from MB135 myoblasts, + IFNG mix sample (no Dox); for 4. mL1dL2 + Dox + IFNG: LC-MS value per protein co-immunoprecipitated with DUX4-CTD construct mL1dL2 in MB135 myoblasts", "text": "As an unbiased method to identify proteins that interact with the C-terminal region of DUX4, liquid chromatography mass spectroscopy (LC-MS) was used to identify proteins that co-immunoprecipitated with DUX4-CTD constructs expressed in MB135 myoblasts. In the first experiment, MB135iDUX4-CTD cells were used, either untreated, treated with doxycycline alone, or with both doxycycline and IFNG. In the second experiment, MB135iDUX4-CTD and MB135iDUX4mL1dL2 cells were used, both treated with doxycycline and IFNG, compared to these two cell lines untreated and combined as a control. Proteins with a minimum of 2 peptide spectrum matches (PSMs) in at least one sample that were identified in both experiments were assigned to one of ten categories (see Methods) to separate candidate interactors from other categories that might be co-purified because of obligate interactions (e.g., proteasome or ribosome) or might be less likely to be physiologically relevant (e.g., cytoskeletal proteins). Candidate interactors were then ranked based on the total PSMs for that protein across all samples.\nCentrifugation at 2500 rcf at 4° C. for 5 min pelleted the nuclei, supernatant was discarded, and nuclei resuspended in 1 mL IP buffer pH 7.4 (25 mM Tris-HCl pH 7.5, 175 mM NaCl, 1 mM EDTA, 0.2% NP-40, 5% glycerol) and incubated for 1 hour at 4° C. with rotation then spun at 21000 rcf for 10 minutes at 4° C. to pellet insoluble debris. Protein concentration was determined using the Pierce BCA Protein Assay Kit (ThermoFisher, 23225). An equivalent amount of protein per sample was pre-cleared with Dynabeads Protein G (Invitrogen) bound to mouse IgG (Abcam #131368) for 1 hour at 4° C. with rotation. FLAG-tagged constructs were then immunoprecipitated with Dynabeads Protein G beads coupled to mouse anti-FLAG M2 mAb (Sigma F3165) for 3 hours at 4° C. with rotation. Beads were washed 3× with 1 mL IP buffer and eluted by adding 2× NuPage LDS Sample Buffer (Thermo Fisher, diluted from 4× with PBS) to the beads and heating for 10 minutes at 70° C.\nFor LC-MS, anti-FLAG immunoprecipitation was performed with beads cross-linked to the anti-FLAG antibody and the proteins competitively eluted with FLAG peptide. Eluted protein samples were electrophoresed into a NuPage 4-12% Bis-Tris gel, excised, and processed by the Fred Hutchinson Cancer Research Center Proteomics Core. Samples were reduced, alkylated, digested with trypsin, desalted, and run on the Orbitrap Eclipse Tribid Mass Spectrometer (Thermo Fisher). Proteomics data were analyzed using Proteome Discoverer 2.4 against a Uniprot human database that included common contaminants using Sequest HT and Percolator for scoring. […] Proteins that were identified in at least one sample from both independent experiments with at least 2 PSMs in one sample were assigned to one of ten categories: 1, candidates; 2, cytoskeletal associated; 3, cytoskeletal; 4, ribosome/translation associated; 5, proteasome associated; 6, membrane or extracellular; ER, golgi, or vesicle associated; 8, lipid metabolism; 9, chaperones; 10, nuclear import or nuclear membrane associated. The proteins in category 1 were further investigated for interactions with DUX4."}
{"molecule": "B1", "values": [{"measurement": "4. + IFNG mix", "value": 9}, {"measurement": "4. mL1dL2 + Dox + IFNG", "value": 30}]}
{"molecule": "B2", "values": [{"measurement": "4. + IFNG mix", "value": 4}, {"measurement": "4. mL1dL2 + Dox + IFNG", "value": 3}]}
{"molecule": "B3", "values": [{"measurement": "4. mL1dL2 + Dox + IFNG", "value": 7}]}
{"molecule": "B4", "values": [{"measurement": "4. mL1dL2 + Dox + IFNG", "value": 21}]}
{"molecule": "B5", "values": [{"measurement": "4. + IFNG mix", "value": 12}, {"measurement": "4. mL1dL2 + Dox + IFNG", "value": 4}]}
{"molecule": "B6", "values": [{"measurement": "4. mL1dL2 + Dox + IFNG", "value": 3}]}
